The MegaScale stability set (Tsuboyama et al. 2023)

B1: EEHEE_rd4_0469 (parent)
chain: ITIHVNGVTYHFDNPEEAEKFAQKMAKTYQLKMEIHNGEFHME

Variants of: B1
Assay: folding stability dG (cDNA display proteolysis); higher = more stable
Conditions: PBS, room temperature

Folding stability dG [kcal/mol] of substitutions, site by site:
F12: T -0.211, Q -0.822, L 0.299, A -0.214, N -0.578, W 0.481, K -0.93, Y 0.526, H -0.29, M 0.391, I 0.352, V 0.034, C 1.07, P -0.616, G -0.935, S -0.408
K20: D 1.03, N 1.02, V 1.17, P 0.383, S 1.15, M 1.15, H 1.15, E 1.11, Y 1.09, W 1.02, F 1.1, R 1.17, C 2.01, A 1.21, Q 1.17, T 1.19, L 1.23, I 1.18, G 0.79
V8: T 1.12, F 1.36, E 1.09, S 1.09, H 1.11, L 1.19, Y 1.29, N 1.12, I 1.13, D 1.01, K 1.38, R 1.43, Q 1.06, W 1.47, A 1.11, M 1.18, G 0.858
E17: Q 1.03, R 1.07, L 1.19, M 1.07, V 1.02, N 0.912, I 1.09, S 1.15, Y 0.867, H 0.948, C 1.81, P 0.444, D 1.06, A 1.15, T 1.07, G 0.714, W 1.01, F 0.96, K 1.14
Y10: M 0.573, V 0.557, Q -0.14, C 1.52, I 0.806, F 1.19, A 0.111, S -0.597, E -0.243, W 1.07, N -0.261, R 0.338, K 0.307, H 0.792, L 0.756, T 0.067
A18: L 0.747, R 0.63, D -0.444, P -0.237, S 0.425, N -0.125, H 0.114, T 0.325, Y 0.556, K 0.431, E 0.011, C 1.56, I 0.525, V 0.798, M 0.753, F 1, G 1.03, W 0.81, Q 0.282
D13: Q 1.11, P 1.17, E 1.11, H 1.2, S 1.26, A 1.2, F 1.15, R 1.15, N 1.13, L 1.28, V 1.21, G 1.11, I 1.3, T 1.25, C 1.81, K 1.1, W 1.23, M 1.16, Y 1.23
K24: N 0.976, Q 1.2, V 1.29, S 0.939, L 1.48, F 1.99, E 1.39, M 1.41, D 1.09, Y 2.27, A 1.11, G 0.646, P -0.407, R 1.31, T 1.1, W 2.29, H 1.51, I 1.41
T9: M 1.21, S 1.17, L 1.15, H 1.11, N 0.826, D 0.639, G 1.11, W 0.84, K 1.51, Q 1.27, E 0.827, I 1.19, F 0.925, V 1.25, Y 0.832, R 1.4, A 1.39, P 1.51, C 1.86
E16: V 1.18, S 1.12, H 1.14, R 1.21, K 1.18, I 1.18, Q 1.1, W 1.16, M 1.15, G 1.02, T 1.09, A 1.12, Y 1.19, N 1.03, C 1.77, P 0.698, L 1.19, D 1.25, F 1.2
N14: F 1.05, W 1.05, Y 0.849, M 0.98, H 0.946, K 1.1, S 1.07, E 0.901, I 1.22, P 0.129, L 1.18, R 1.09, Q 1, V 1.1, T 1.09, G 0.9, A 0.947, D 1.19
A22: W 0.941, Y 1.01, E 0.335, D -0.261, Q 0.662, F 0.747, G 0.3, M 1.19, T 0.747, N 0.367, H 0.587, R 1.06, C 1.76, V 1.4, S 0.704, I 1.46, L 0.879, K 0.843
M25: D -0.066, E 0.109, F 0.692, A 0.464, C 1.66, L 1.12, N 0.081, G -0.244, H 0.288, K -0.083, I 0.968
Q23: I 1.27, E 1.14, Y 1.28, D 0.989, R 1.35, A 1.24, C 2.52, M 1.29, N 0.986, H 0.988, W 1.36, S 1.05, T 1.19, G 0.566, V 1.26, K 1.07, F 1.19, L 1.25
H11: S 1.05, P 0.279, I 1.04, M 1.03, R 1.13, Y 1.18, V 1.07, W 1.24, L 1.02, Q 1.01, E 0.843, T 1.07, G 0.636, N 0.977, A 1.02, K 1.12, D 0.692, F 1.17
G7: N 1.07, I 2.4, F 1.65, T 0.96, L 1.33, P -0.022, Q 0.959, K 1, V 1.83, Y 1.26, E 0.803, S 1.07, M 1.22, H 1.13, W 1.43, R 1.04
F21: G -0.582, I 0.089, A 0.133, Y 0.564, R -0.383, C 1.38, V 0.092, L 0.173, N -0.383, S -0.647, H 0.061, W 1.2, Q -0.188, D -0.653, E -0.052, M 0.206, T -0.122, K -0.758
P15: I 1.27, G 1.04, D 0.883, A 1.14, V 1.21, R 1.34, K 1.17, T 1.14, H 1.13, S 1.1, F 1.39, M 1.5, L 1.35, Y 1.36, N 0.994, E 0.979, Q 1.03, W 1.53
E19: L 1.61, S 1.16, I 1.5, V 1.47, N 1.32, W 1.82, R 1.41, Q 1.26, K 1.27, H 1.38, A 1.35, P -0.375, Y 1.6, T 1.3, M 1.61, D 1.07, G 1.03, F 1.63
